Assay results published in patent US20250340637A1 (ABPRO, published 2025).
Residue numbers refer to the chain shown, from its start. Names and notes keep the numbering of the source.

B1: VH2 (SEQ ID NO: 21) + VL6 (SEQ ID NO: 19) (antibody, V domains shown)
VH: EVQLVESGGGLVQPGGSLKLSCAASGFTFNTYAMNWVRQASGKGLEWVARIRSKYNNYATYYADSVKDRFTISRDDSKNTAYLQMNSLKTEDTAVYYCVRHGNFGNSYVSWFAYWGQGTLVTVSS
VL: QTVVTQEPSLTVSPGGTVTLTCRSSTGAVTTSNYANWVQQKPGQAFRGLIGGTNKRAPGVPARFSGSLLGGKAALTLSGVQPEDEAIYFCALWYSNLWVFGGGTKLEIK
notes: Humanized SP34 anti-CD3 variant; the text around it speaks of full-length bispecific antibodies; The sample heated at 42° C. is the same molecule and is marked under assay; also called VH2 + VL6
B2: ABP100s.11.0 (antibody, V domains shown)
VH: EVQLLESGGGLVQPGGSLRLSCAASGFTFNTYAMNWVRQAPGKGLEWVSRIRSKYNNYATYYADSVKDRFTISRDNSKNTLYLQMNSLRAEDTAVYYCAKHGNFGNSYVSWFAYWGQGTTVTVSS
VL: QAVVTQEPSLTVSPGGTVTLTCRSSTGAVTTSNYANWFQQKPGQAPRTLIYGTNKRAPWTPARFSGSLLGGKAALTLSGAQPEDEAEYYCALWYSNLWVFGGGTKLTVL
B3: ABP100s.11.5 (antibody, V domains shown)
VH: B2 VH
VL: B2 VL
B4: ABP100s.12.5 (antibody, V domains shown)
VH: B2 VH with G44C
VL: B2 VL with G102C
B5: 32G4-V8 x huSP34-v5 (N297A, K322A) (bispecific antibody, V domains shown)
VH: B1 VH with S41P
VL: B1 VL
notes: The name carries the substitutions N297A, K322A
B6: 47D10-V7-v5.1 (antibody, V domains shown)
VH: B1 VH with S41P, A113G
VL: B1 VL with E107T, I108V, K109L
B7: 47D10-V7 x huSP34-v5 (bispecific antibody, V domains shown)
VH: B1 VH with S41P
VL: B1 VL
notes: The name reads as 47D10-V7 arm x huSP34-v5 arm
B8: 32G4-V8-v5.1 (antibody, V domains shown)
VH: B1 VH with S41P, A113G
VL: B1 VL with E107T, I108V, K109L
B9: 47D10-V7 x huSP34-v5 (N297A, K322A) (bispecific antibody, V domains shown)
VH: B1 VH with S41P
VL: B1 VL
notes: as for B5
B10: 32G4-V8 x huSP34-v5 (bispecific antibody, V domains shown)
VH: B1 VH with S41P
VL: B1 VL
notes: The name reads as 32G4-V8 arm x huSP34-v5 arm
B11: ABP100s.12.0 (antibody, V domains shown)
VH: B2 VH with G44C
VL: B2 VL with G102C
B12: ABP100s.13 (antibody, V domains shown)
VH: B1 VH with K19R, S41P, D68G, K78Q, N79S, T80S, A81L
VL: B2 VL with R23G, F38V, P46F, T48G, Y51G, L69I, G71D, Y89F
B13: ABP100s.17 (antibody, V domains shown)
VH: B1 VH with K19R, S41P, D68G, K78Q, N79S, T80S, A81L
VL: B2 VL with R23G, F38V, P46F, T48G, Y51G, R56K, P58S, G71D
B14: ABP100s.16 (antibody, V domains shown)
VH: B1 VH with Q13K, K19R, S41P, D68G, S77A, N79S, T80S, A81L, K89R, T90A
VL: B2 VL with R23G, F38V, P46F, T48G, Y51G, L69I, G71D, Y89F
B15: ABP100s.15 (antibody, V domains shown)
VH: B1 VH with Q13K, K19R, S41P, D68G, K78Q, N79S, T80S, A81L, K89R, T90A
VL: B2 VL with R23G, F38V, P46F, T48G, Y51G, L69I, G71D, Y89F
B16: ABP100s.18 (antibody, V domains shown)
VH: B1 VH with K19R, S41P, D68G, N79S, T80S, A81L
VL: B2 VL with R23G, F38V, P46F, T48G, Y51G, R56K, P58S, G71D
B17: ABP100s.20 (antibody, V domains shown)
VH: B1 VH with Q13K, K19R, S41P, D68G, S77A, N79S, T80S, A81L, K89R, T90A
VL: B2 VL with R23G, F38V, P46F, T48G, Y51G, R56K, P58S, G71D
B18: ABP100s.19 (antibody, V domains shown)
VH: B1 VH with Q13K, K19R, S41P, D68G, K78Q, N79S, T80S, A81L, K89R, T90A
VL: B2 VL with R23G, F38V, P46F, T48G, Y51G, R56K, P58S, G71D
B19: ABP100s.14 (antibody, V domains shown)
VH: B1 VH with K19R, S41P, D68G, N79S, T80S, A81L
VL: B2 VL with R23G, F38V, P46F, T48G, Y51G, L69I, G71D, Y89F
B20: ABP100s.22 (antibody, V domains shown)
VH: B1 VH with K19R, S41P, D68G, N79S, T80S, A81L
VL: QAVVTQEPSFSVSPGGTVTLTCGSSTGAVTTSNYANWVQQTPGQAFRGLIGGTNKRASGVPDRFSGSLLGDKAALTITGAQADDESDYYCALWYSNLWVFGGGTKLTVL
B21: ABP100s.23 (antibody, V domains shown)
VH: B1 VH with Q13K, K19R, S41P, D68G, K78Q, N79S, T80S, A81L, K89R, T90A
VL: B20 VL
B22: ABP100s.24 (antibody, V domains shown)
VH: B1 VH with Q13K, K19R, S41P, D68G, S77A, N79S, T80S, A81L, K89R, T90A
VL: B20 VL
B23: ABP100s.21 (antibody, V domains shown)
VH: B1 VH with K19R, S41P, D68G, K78Q, N79S, T80S, A81L
VL: B20 VL
B24: ABP100s.10.5.2 (antibody, V domains shown)
VH: B1 VH with S41P, G44C, Y62K
VL: B1 VL with G102C, E107T, I108V, K109L
B25: ABP100s.10.6.2 (antibody, V domains shown)
VH: B1 VH with S41P, G44C, Y62K
VL: B1 VL with G102C, E107T, I108V, K109L
B26: ABP100s.10.5.3 (antibody, V domains shown)
VH: B1 VH with S41P, G44C, S65K
VL: B1 VL with G102C, E107T, I108V, K109L
B27: ABP100s.10.6.3 (antibody, V domains shown)
VH: B1 VH with S41P, G44C, S65K
VL: B1 VL with G102C, E107T, I108V, K109L
B28: ABP100s.10.5.4 (antibody, V domains shown)
VH: B1 VH with S41P, G44C, A63W
VL: B1 VL with G102C, E107T, I108V, K109L
B29: ABP100s.10.6.4 (antibody, V domains shown)
VH: B1 VH with S41P, G44C, A63W
VL: B1 VL with G102C, E107T, I108V, K109L

The binders below were run against T1, HuCD3E (Homo sapiens, UniProt P07766 23-126, limits assumed) (assay: SPR, Biacore 8K; antibody captured, CD3E as analyte).
T1 construct: Recombinant analyte in SPR and antigen in ELISA; also called human CD3; human CD3 epsilon
T1 sequence (P07766 23-126 limits assumed): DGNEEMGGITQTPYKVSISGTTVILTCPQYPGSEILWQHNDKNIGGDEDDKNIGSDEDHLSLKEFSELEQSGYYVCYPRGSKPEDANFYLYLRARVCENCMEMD
Description: (§1) Initially, the affinity measurement of the anti-CD3 clones were determined using a Surface Plasmon Resonance (SPR) biosensor, Biacore 8K (GE Healthcare). The equilibrium dissociation constant (KD) was calculated from the ratio of kd over ka. To determine the contribution of a specific residue to antibody affinity and expression, paratope mapping was performed by screening of NNK libraries. In brief, the VH and VL of the parental antibody were searched by using NCBI Ig-Blast (www.ncbi.nlm.nih.gov/projects/igblast/) and CDRs were defined by the KABAT delineation system. All residues within CDRs were defined and mutated by NNK method. Each individual NNK library was generated per residue based on the FASEBA platform with a theoretical diversity at 20. The DNA encoding both heavy chain and light chain were inserted into a mammalian expression vector, transfected into CHO-S cells, and stable clones of highest expression were selected. Supernatants were collected from shaker flasks and purified on protein A affinity chromatography.
(§2) Affinity ranking. Binding between the parental and affinity-tuned bispecific antibodies and human and cyno target proteins (HER2 and CD3) was validated by ELISA, and a Biacore 8K was used to study the kinetics of the interaction between the antigen and the bispecific antibodies.

Row | Binder | Kd | koff | kon
1 | B1 | 1.01 nM | 0.000357 s⁻¹ | 352000 M⁻¹ s⁻¹

Each binder was assayed against T2, CynoCD3E (cyno, UniProt Q95LI5 22-117, limits assumed) in the same assay as above.
T2 construct: Recombinant analyte in SPR and antigen in ELISA; The construct is not described; also called cynomolgus CD3 epsilon
T2 sequence (looked up): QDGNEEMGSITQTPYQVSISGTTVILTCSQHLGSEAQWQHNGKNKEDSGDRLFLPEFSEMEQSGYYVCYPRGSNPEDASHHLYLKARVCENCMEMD
Description: as §1, §2

Row | Binder | Kd | koff | kon
2 | B1 | 1.7 nM | 0.000821 s⁻¹ | 483000 M⁻¹ s⁻¹

The binders below were run against T1, HuCD3E (assay: SPR, Biacore 8K; CD3 Affinity column: Hi).

Row | Binder | Kd
3 | B2 | < 10 nM
4 | B3 | < 10 nM
5 | B4 | < 10 nM
6 | B5 | < 10 nM
7 | B6 | < 10 nM
8 | B7 | < 10 nM
9 | B8 | < 10 nM
10 | B9 | < 10 nM
11 | B10 | < 10 nM
12 | B11 | < 10 nM

Biological target: T1, HuCD3E
Assay: SPR, Biacore 8K; CD3 Affinity column: Hi
Remark: another data set of the same source
Description: as §1, §2

Row | Binder | Kd
13 | B12 | < 10 nM
14 | B13 | < 10 nM
15 | B14 | < 10 nM
16 | B15 | < 10 nM
17 | B16 | < 10 nM
18 | B17 | < 10 nM
19 | B18 | < 10 nM
20 | B19 | < 10 nM
21 | B20 | < 10 nM
22 | B21 | < 10 nM
23 | B22 | < 10 nM
24 | B23 | < 10 nM

Each binder was assayed against T1, HuCD3E (assay: SPR, Biacore 8K; CD3 Affinity column: Med; lower end of the range).

Row | Binder | Kd
25 | B24 | ≥ 10 nM
26 | B25 | ≥ 10 nM
27 | B26 | ≥ 10 nM
28 | B27 | ≥ 10 nM
29 | B28 | ≥ 10 nM
30 | B29 | ≥ 10 nM

What follows are binders tested against T1, HuCD3E (assay: SPR, Biacore 8K; CD3 Affinity column: Med; upper end of the range).
Description: as §1, §2

Row | Binder | Kd
31 | B24 | ≤ 100 nM
32 | B25 | ≤ 100 nM
33 | B26 | ≤ 100 nM
34 | B27 | ≤ 100 nM
35 | B28 | ≤ 100 nM
36 | B29 | ≤ 100 nM
